In PMC9605926, “Safety of [^177Lu]Lu-NeoB treatment: a preclinical study characterizing absorbed dose and acute, early, and late organ toxicity” (European Journal of Nuclear Medicine and Molecular Imaging, 2022):

Test: Dosimetry: absorbed organ dose from biodistribution data (MIRD scheme, RADAR mouse phantom)
Assay type: in vivo
Experimental: Data obtained during the in vivo biodistribution studies were used to calculate the absorbed dose for each organ according to the MIRD-scheme. The time integrated activity concentration coefficients were determined by fitting exponential curves to the activity concentration data points at 1, 4, 24, 48, 96, and 168 h p.i. and integrating these curves over time. The least squares fitting analysis was performed with GraphPad Prism software. The S-values for lutetium-177 were based on the 24 g realistic RADAR mouse phantom. The standard organ weights of this model were used to convert from activity concentration to activity. With this model, the absorbed dose in most organs could be calculated. S-values for organs not included in the mouse model, such as adrenal glands and prostate, were determined with the spherical node model within the Olinda/EXM code.
The absorbed doses determined from the biodistribution assay were extrapolated to the dose the animals received during the radiotoxicity study. Here, the animals received 3 consecutive injections with a 7-day interval.

[1] = female, 3× 120 MBq/1200 pmol, extrapolated cumulative
[2] = male, 3× 40 MBq/400 pmol, extrapolated cumulative
[3] = male, 3× 80 MBq/800 pmol, extrapolated cumulative
[4] = male, 3× 120 MBq/1200 pmol, extrapolated cumulative

## CC(C)CC(CC(C)C)NC(=O)[C@H](Cc1cnc[nH]1)NC(=O)CNC(=O)[C@@H](NC(=O)[C@H](C)NC(=O)[C@H](Cc1c[nH]c2ccccc12)NC(=O)[C@H](CCC(N)=O)NC(=O)[C@@H](Cc1ccccc1)NC(=O)COCC(=O)Nc1ccc(CNC(=O)CN2CCN(CC(=O)O)CCN(CC(=O)O)CCN(CC(=O)O)CC2)cc1)C(C)C [[^177Lu]Lu-NeoB, metal not drawn]
female, 1× 120 MBq/1200 pmol
  Absorbed dose adrenal glands: 0.82 Gy
  Absorbed dose brain: 0.12 Gy
  Absorbed dose colon wall: 1.81 Gy
  Absorbed dose heart wall: 0.42 Gy
  Absorbed dose kidneys: 5.24 Gy
  Absorbed dose liver: 4.37 Gy
  Absorbed dose lungs: 0.62 Gy
  Absorbed dose mammary fat pad: 1.11 Gy
  Absorbed dose osteogenic cells: 0.07 Gy
  Absorbed dose ovaries: 0.53 Gy
  Absorbed dose pancreas: 3.30 Gy
  Absorbed dose small intestine: 1.80 Gy
  Absorbed dose spleen: 0.68 Gy
  Absorbed dose stomach wall: 1.31 Gy
  Absorbed dose total body: 0.65 Gy
  Absorbed dose urinary bladder: 0.05 Gy
[1]
  Absorbed dose adrenal glands: 2.47 Gy
  Absorbed dose brain: 0.35 Gy
  Absorbed dose colon wall: 5.43 Gy
  Absorbed dose heart wall: 1.27 Gy
  Absorbed dose kidneys: 15.71 Gy
  Absorbed dose liver: 13.11 Gy
  Absorbed dose lungs: 1.87 Gy
  Absorbed dose mammary fat pad: 3.34 Gy
  Absorbed dose osteogenic cells: 0.21 Gy
  Absorbed dose ovaries: 1.60 Gy
  Absorbed dose pancreas: 9.89 Gy
  Absorbed dose small intestine: 5.40 Gy
  Absorbed dose spleen: 2.05 Gy
  Absorbed dose stomach wall: 3.94 Gy
  Absorbed dose total body: 1.95 Gy
  Absorbed dose urinary bladder: 0.15 Gy
male, 1× 40 MBq/400 pmol
  Absorbed dose adrenal glands: 0.58 Gy
  Absorbed dose brain: 0.05 Gy
  Absorbed dose colon wall: 0.81 Gy
  Absorbed dose heart wall: 0.25 Gy
  Absorbed dose kidneys: 2.00 Gy
  Absorbed dose liver: 2.11 Gy
  Absorbed dose lungs: 0.35 Gy
  Absorbed dose mammary fat pad: 0.27 Gy
  Absorbed dose osteogenic cells: 0.03 Gy
  Absorbed dose pancreas: 2.23 Gy
  Absorbed dose prostate gland: 0.35 Gy
  Absorbed dose small intestine: 0.80 Gy
  Absorbed dose spleen: 0.50 Gy
  Absorbed dose stomach wall: 1.50 Gy
  Absorbed dose testes: 0.02 Gy
  Absorbed dose total body: 0.31 Gy
  Absorbed dose urinary bladder: 0.02 Gy
male, 1× 80 MBq/800 pmol
  Absorbed dose adrenal glands: 0.54 Gy
  Absorbed dose brain: 0.12 Gy
  Absorbed dose colon wall: 1.21 Gy
  Absorbed dose heart wall: 0.46 Gy
  Absorbed dose kidneys: 3.25 Gy
  Absorbed dose liver: 3.28 Gy
  Absorbed dose lungs: 0.87 Gy
  Absorbed dose mammary fat pad: 0.23 Gy
  Absorbed dose osteogenic cells: 0.06 Gy
  Absorbed dose pancreas: 2.31 Gy
  Absorbed dose prostate gland: 0.68 Gy
  Absorbed dose small intestine: 1.21 Gy
  Absorbed dose spleen: 0.72 Gy
  Absorbed dose stomach wall: 1.50 Gy
  Absorbed dose testes: 0.04 Gy
  Absorbed dose total body: 0.47 Gy
  Absorbed dose urinary bladder: 0.04 Gy
male, 1× 120 MBq/1200 pmol
  Absorbed dose adrenal glands: 0.66 Gy
  Absorbed dose brain: 0.15 Gy
  Absorbed dose colon wall: 0.93 Gy
  Absorbed dose heart wall: 0.68 Gy
  Absorbed dose kidneys: 3.21 Gy
  Absorbed dose liver: 5.61 Gy
  Absorbed dose lungs: 3.91 Gy
  Absorbed dose mammary fat pad: 0.49 Gy
  Absorbed dose osteogenic cells: 0.12 Gy
  Absorbed dose pancreas: 1.54 Gy
  Absorbed dose prostate gland: 0.37 Gy
  Absorbed dose small intestine: 0.94 Gy
  Absorbed dose spleen: 1.35 Gy
  Absorbed dose stomach wall: 1.38 Gy
  Absorbed dose testes: 0.08 Gy
  Absorbed dose total body: 0.66 Gy
  Absorbed dose urinary bladder: 0.08 Gy
[2]
  Absorbed dose adrenal glands: 1.74 Gy
  Absorbed dose brain: 0.15 Gy
  Absorbed dose colon wall: 2.43 Gy
  Absorbed dose heart wall: 0.75 Gy
  Absorbed dose kidneys: 6.00 Gy
  Absorbed dose liver: 6.33 Gy
  Absorbed dose lungs: 1.05 Gy
  Absorbed dose mammary fat pad: 0.81 Gy
  Absorbed dose osteogenic cells: 0.09 Gy
  Absorbed dose pancreas: 6.69 Gy
  Absorbed dose prostate gland: 1.05 Gy
  Absorbed dose small intestine: 2.40 Gy
  Absorbed dose spleen: 1.50 Gy
  Absorbed dose stomach wall: 4.50 Gy
  Absorbed dose testes: 0.06 Gy
  Absorbed dose total body: 0.93 Gy
  Absorbed dose urinary bladder: 0.06 Gy
[3]
  Absorbed dose adrenal glands: 1.62 Gy
  Absorbed dose brain: 0.36 Gy
  Absorbed dose colon wall: 3.63 Gy
  Absorbed dose heart wall: 1.38 Gy
  Absorbed dose kidneys: 9.75 Gy
  Absorbed dose liver: 9.84 Gy
  Absorbed dose lungs: 2.61 Gy
  Absorbed dose mammary fat pad: 0.69 Gy
  Absorbed dose osteogenic cells: 0.18 Gy
  Absorbed dose pancreas: 6.93 Gy
  Absorbed dose prostate gland: 2.04 Gy
  Absorbed dose small intestine: 3.63 Gy
  Absorbed dose spleen: 2.16 Gy
  Absorbed dose stomach wall: 4.50 Gy
  Absorbed dose testes: 0.12 Gy
  Absorbed dose total body: 1.41 Gy
  Absorbed dose urinary bladder: 0.12 Gy
[4]
  Absorbed dose adrenal glands: 1.99 Gy
  Absorbed dose brain: 0.44 Gy
  Absorbed dose colon wall: 2.80 Gy
  Absorbed dose heart wall: 2.03 Gy
  Absorbed dose kidneys: 9.62 Gy
  Absorbed dose liver: 16.84 Gy
  Absorbed dose lungs: 11.72 Gy
  Absorbed dose mammary fat pad: 1.47 Gy
  Absorbed dose osteogenic cells: 0.37 Gy
  Absorbed dose pancreas: 4.61 Gy
  Absorbed dose prostate gland: 1.10 Gy
  Absorbed dose small intestine: 2.81 Gy
  Absorbed dose spleen: 4.05 Gy
  Absorbed dose stomach wall: 4.14 Gy
  Absorbed dose testes: 0.23 Gy
  Absorbed dose total body: 1.97 Gy
  Absorbed dose urinary bladder: 0.24 Gy
